# B1: TPR t1 (parent)
# chain: GACCAAUCUGCCCUCAGAGCUCGAGAACAUCUUCGGAUGCAGAGGAGGCAGGCUUCGGUGGCGCGAUAGCGCCAACGUCCUCAACCUCCAAUGCAUCCCACCACAUGAUGAUGCCUGAAGAGCCUUGGUUUUUUG
# Variants of: B1
# Experiment: polymerase ribozyme fitness, log enrichment relative to wild type (log ratio); higher = more active; in vitro selection for triplet polymerase activity
# Procedure, shortened: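 Input and output libraries were sequenced on Illumina after a single in vitro selection round, run in triplicate on PCR-built, transcribed mutant libraries of each subunit of a heterodimeric triplet polymerase ribozyme. Selection annealed libraries to a biotinylated primer, the partner subunit and triplets, incubated them frozen at −7 °C, then gel-excised extended constructs for streptavidin-bead capture and RT-PCR. Genotypes with ≥10 input reads and ≥1 read per output were kept. Fitness is the logarithm, taken in base 2, of genotype enrichment divided by wild-type enrichment, using inverse-variance-weighted replicate averages.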
row,Variant,polymerase ribozyme fitness (log ratio)
1,GACCAAUCUGCCCUCAGAGCUCGAGAACAUCUUCGGAUGCAGAGGAGGCAGGCUUCGGUGACGCGAUAGCGCCAACGUCCUCAACCUCCAAUGCAUCCCACCACAUGAUGAUGCCGGAAGAGCCUUGUUUUUUUG [G61A U116G G128U],-3.71
2,GACCAAUCUGCCCUCAGAGCUCGAGAACAUCUUCGGAUGCAGAGGAGGCAGGCUUCGGUGACGCGAUAGCGCCAACGUCCUCAACCUCCAAUGCAUCCCACCACAUGAUUAUGCCUGAAGAGCCUUGGUUUUUUG [G61A G110U],-0.817
3,GACCAAUCUGCCCUCAGAGCUCGAGAACAUCUUCGGAUGCAGAGGAGGCAGGCUUCGGUGACGCGAUAGCGCCAACGUCCUCAACCUCCAAUGCAUCCCACCACAUGAUCAUGCCUGAAGAGCCUUGGUUUUUUG [G61A G110C],-3.29
4,GACCAAUCUGCCCUCAGAGCUCGAGAACAUCUUCGGAUGCAGAGGAGGCAGGCUUCGGUGACGCGAUAGCGCCAACGUCCUCAACCUCCAAUGCAUCCCACCACAUGAUGAUGCCUGAAGAGCCUUGGUAUUUUG [G61A U130A],0.0628
5,GACCAAUCUGCCCUCAGAGCUCGAGAACAUCUUCGGAUGCAGAGGAGGCAGGCUUCGGUGACGCGAUAGCGCCAACGUCCUCAACCUCCAAUGCAUCCCACCACAUGAUGAUGCCUGAAGAGCCUUGGUGUUUUG [G61A U130G],-0.92
6,GACCAAUCUGCCCUCAGAGCUCGAGAACAUCUUCGGAUGCAGAGGAGGCAGGCUUCGGUGACGCGAUAGCGCCAACGUCCUCAACCUCCAAUCCAUCCCACCACAUGAUGAUGCCUGAAGAGCCUUGGUUUUUUG [G61A G93C],-0.381
7,GACCAAUCUGCCCUCAGAGCUCGAGAACAUCUUCGGAUGCAGAGGAGGCAGGCUUCGGUGACGCGAUAGCGCCAACGUCCUCAACCUCCAAUCCCUCCCACCACAUGAUGAUGCCUGAAGAGCCUUGGUUUUUUG [G61A G93C A95C],-1.24
8,GACCAAUCUGCCCUCAGAGCUCGAGAACAUCUUCGGAUGCAGAGGAGGCAGGCUUCGGUGACGCGAUAGCGCCAACGUCCUCAACCUCCAAUGCAUCCCACCACAUGAUAAUGGCUGAAGAGCCUUGGUUUUUUG [G61A G110A C114G],-6.32
9,GACCAAUCUGCCCUCAGAGCUCGAGAACAUCUUCGGAUGCAGAGGAGGCAGGCUUCGGUGACGCGAUAGCGCCAACGUCCGCAGCCUCCAGUGCAUCCCACCACAUGAUGGUGCCUGAAGAGCCUUGGUUUUUUG [G61A U81G A84G A91G A111G],-4.48
10,GACCAAUCUGCCCUCAGAGCUCGAGAACAUCUUCGGAUGCAGAGGAGGCAGGCUUCGGUGACGCGAUAGCGCCAACGUCCUCAACCUCCAAUGCAUCCCACCACAUGAUGAUGCCCGAAGAGCCUUGGUUUUUUG [G61A U116C],-0.278
11,GACCAAUCUGCCCUCAGAGCUCGAGAACAUCUUCGGAUGCAGAGGAGGCAGGCUUCGGUGACGCGAUAGCGCCAACGUCCUCAACCUCCAAUGCAUCCCACCACAUGAUGAUGCCGGAAGAGCCUUGGUUUUUUG [G61A U116G],-3.01
12,GACCAAUCUGCCCUCAGAGCUCGAGAACAUCUUCGGAUGCAGAGGAGGCAGGCUUCGGUGACGCGAUAGCGCCAACGUCCUCAACCUCCAAUGCAUCCCACCACAUGAUGAUGCCUGAAGAGCCGUGGUUUUUUG [G61A U125G],-0.638
13,GACCAAUCUGCCCUCAGAGCUCGAGAACAUCUUCGGAUGCAGAGGAGGCAGGCUUCGGUGACGCGAUAGCGCCAACGUCCUCAACCACCAAUGCAUCCCACCACAUGAUGAUGCCUGAAGAGCCUUGGUUUUUUG [G61A U87A],0.597
14,GACCAAUCUGCCCUCAGAGCUCGAGAACAUCUUCGGAUGCAGAGGAGGCAGGCUUCGGUGACGCGAUAGCGCCAACGUCCGCAACCUCCAAUGCAUCCCACCACAUGAUGAUGCCUGAAGAGCCUUGGUUUUUUG [G61A U81G],-3.89
15,GACCAAUCUGCCCUCAGAGCUCGAGAACAUCUUCGGAUGCAGAGGAGGCAGGCUUCGGUGACGCGAUAGCGCCAACGUCCUCAACCUCCAAUGCAUCCCACCACAUGAUGAUGCCUGAAGAGCCUUGGUUGUUUG [G61A U131G],-0.0143
16,GACCAAUCUGCCCUCAGAGCUCGAGAACAUCUUCGGAUGCAGAGGAGGCAGGCUUCGGUGACGCGAUAGCGCCAACGUCCUCAACCUCCAAUGCAUCCCACCACAUGAUGAUGCCUGAAGAGCCUUGGUUCUUUG [G61A U131C],-0.691
17,GACCAAUCUGCCCUCAGAGCUCGAGAACAUCUUCGGAUGCAGAGGAGGCAGGCUUCGGUGACGCGAUAGCGCCAACGCCCUCAACCUCCAAUGCAUCCCACCAAAUGAUGAUGCCUGAAGAGCCUUGGUUUUUUG [G61A U78C C104A],-1.61
18,GACCAAUCUGCCCUCAGAGCUCGAGAACAUCUUCGGAUGCAGAGGAGGCAGGCUUCGGUGACGCGAUAGCGCCAACGUCCUCAACCUCCAAUGCAUCCCACCACAUGAUGAUGCCUGAAGAGCCUUGGUUUUUUU [G61A G135U],-0.801
19,GACCAAUCUGCCCUCAGAGCUCGAGAACAUCUUCGGAUGCAGAGGAGGCAGGCUUCGGUGACGCGAUAGCGCCAACGUCCUCAACCUCCAAUGCAUCCCACCACAUGAUGAUGCCUGAAGAACCUUGGUUUUUUG [G61A G122A],-0.219
20,GACCAAUCUGCCCUCAGAGCUCGAGAACAUCUUCGGAUGCAGAGGAGGCAGGCUUCGGUGACGCGAUAGCGCCAACGUCCUCAACCUCCAAUGCAUCCCACCACAUGAUGAUGCCUGAAGAUCCUUGGUUUUUUG [G61A G122U],0.115
21,GACCAAUCUGCCCUCAGAGCUCGAGAACAUCUUCGGAUGCAGAGGAGGCAGGCUUCGGUGACGCGAUAGCGCCAACGUCCUCAACCUCCAAUGCAUCCCACCACAUGAUGAUGCCUGAAAAGCCUUGGUUUUUUG [G61A G120A],0.833
